Assays:
[1] = target: T1, Cin5 (Saccharomyces cerevisiae) (UniProt P40917); conditions: 100 nM
T1 sequence: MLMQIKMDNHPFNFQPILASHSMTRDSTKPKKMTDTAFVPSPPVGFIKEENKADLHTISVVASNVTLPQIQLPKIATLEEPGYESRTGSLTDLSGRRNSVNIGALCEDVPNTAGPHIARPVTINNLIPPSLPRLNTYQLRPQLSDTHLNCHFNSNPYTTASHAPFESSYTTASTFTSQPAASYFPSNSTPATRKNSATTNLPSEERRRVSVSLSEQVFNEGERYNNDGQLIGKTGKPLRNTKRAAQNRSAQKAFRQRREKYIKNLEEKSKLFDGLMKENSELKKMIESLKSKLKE

[2] = target: T2, Sko1 (Saccharomyces cerevisiae) (UniProt Q02100); conditions: 200 nM
T2 sequence: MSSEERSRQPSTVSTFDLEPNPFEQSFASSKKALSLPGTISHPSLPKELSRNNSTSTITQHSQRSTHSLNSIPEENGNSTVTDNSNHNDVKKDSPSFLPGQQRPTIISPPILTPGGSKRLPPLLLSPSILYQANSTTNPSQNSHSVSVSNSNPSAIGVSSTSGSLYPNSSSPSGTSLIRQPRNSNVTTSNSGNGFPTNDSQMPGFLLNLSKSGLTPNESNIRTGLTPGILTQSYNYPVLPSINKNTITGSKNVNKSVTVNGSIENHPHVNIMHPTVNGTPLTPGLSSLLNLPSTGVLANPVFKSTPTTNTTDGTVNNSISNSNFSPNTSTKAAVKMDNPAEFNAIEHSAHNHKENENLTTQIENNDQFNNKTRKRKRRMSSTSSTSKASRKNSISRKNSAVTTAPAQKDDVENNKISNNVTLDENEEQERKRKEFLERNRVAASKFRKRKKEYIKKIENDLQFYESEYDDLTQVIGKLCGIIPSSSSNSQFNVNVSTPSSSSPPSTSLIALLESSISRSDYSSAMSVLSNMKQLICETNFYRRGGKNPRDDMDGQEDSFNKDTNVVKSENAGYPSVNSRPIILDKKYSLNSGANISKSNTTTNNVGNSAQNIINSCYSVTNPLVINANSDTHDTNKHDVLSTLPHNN

[3] = target: T3, Yap3 (Saccharomyces cerevisiae) (UniProt P38749); conditions: 100 nM
T3 sequence: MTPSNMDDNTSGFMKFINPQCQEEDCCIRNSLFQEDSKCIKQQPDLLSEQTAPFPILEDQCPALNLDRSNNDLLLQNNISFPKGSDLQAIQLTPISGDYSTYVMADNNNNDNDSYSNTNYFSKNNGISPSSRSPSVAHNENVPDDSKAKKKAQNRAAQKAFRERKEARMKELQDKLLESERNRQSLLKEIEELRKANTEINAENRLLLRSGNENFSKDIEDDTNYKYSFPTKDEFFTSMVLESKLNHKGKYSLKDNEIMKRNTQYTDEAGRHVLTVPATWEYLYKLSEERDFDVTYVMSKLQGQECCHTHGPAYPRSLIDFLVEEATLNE

[4] = target: T4, Sut1 (Saccharomyces cerevisiae) (UniProt P53032); conditions: 200 nM
T4 sequence: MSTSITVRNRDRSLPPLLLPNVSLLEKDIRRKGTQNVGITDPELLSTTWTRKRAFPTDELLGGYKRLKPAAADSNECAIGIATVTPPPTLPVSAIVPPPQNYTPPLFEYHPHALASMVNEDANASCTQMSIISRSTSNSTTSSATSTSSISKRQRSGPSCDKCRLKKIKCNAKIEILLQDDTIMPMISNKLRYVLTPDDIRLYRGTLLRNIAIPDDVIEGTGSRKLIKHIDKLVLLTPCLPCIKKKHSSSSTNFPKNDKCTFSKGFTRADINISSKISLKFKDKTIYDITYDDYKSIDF

[5] = target: T5, Yer184c (Saccharomyces cerevisiae) (UniProt P39961); conditions: 100 nM
T5 sequence: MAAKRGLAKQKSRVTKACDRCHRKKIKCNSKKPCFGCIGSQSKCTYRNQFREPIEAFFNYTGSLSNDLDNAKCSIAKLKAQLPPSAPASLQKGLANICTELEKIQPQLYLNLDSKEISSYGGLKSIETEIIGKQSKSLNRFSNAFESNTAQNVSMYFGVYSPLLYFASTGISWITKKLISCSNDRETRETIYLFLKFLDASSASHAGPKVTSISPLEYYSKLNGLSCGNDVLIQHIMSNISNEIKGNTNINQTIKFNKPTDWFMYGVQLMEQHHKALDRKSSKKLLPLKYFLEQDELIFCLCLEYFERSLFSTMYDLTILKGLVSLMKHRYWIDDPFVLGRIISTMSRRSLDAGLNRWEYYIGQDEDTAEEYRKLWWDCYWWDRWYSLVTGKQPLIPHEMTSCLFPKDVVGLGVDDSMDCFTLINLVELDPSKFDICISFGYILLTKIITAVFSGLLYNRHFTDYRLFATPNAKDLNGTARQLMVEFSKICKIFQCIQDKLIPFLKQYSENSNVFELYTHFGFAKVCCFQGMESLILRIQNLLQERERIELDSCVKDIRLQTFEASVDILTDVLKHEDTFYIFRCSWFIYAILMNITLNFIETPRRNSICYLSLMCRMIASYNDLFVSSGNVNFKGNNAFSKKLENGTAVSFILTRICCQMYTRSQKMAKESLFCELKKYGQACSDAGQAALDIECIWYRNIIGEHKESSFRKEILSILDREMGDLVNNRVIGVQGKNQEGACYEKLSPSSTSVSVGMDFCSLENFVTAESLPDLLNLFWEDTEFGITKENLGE

[6] = target: T6, Cad1 (Saccharomyces cerevisiae) (UniProt P24813); conditions: 100 nM
T6 sequence: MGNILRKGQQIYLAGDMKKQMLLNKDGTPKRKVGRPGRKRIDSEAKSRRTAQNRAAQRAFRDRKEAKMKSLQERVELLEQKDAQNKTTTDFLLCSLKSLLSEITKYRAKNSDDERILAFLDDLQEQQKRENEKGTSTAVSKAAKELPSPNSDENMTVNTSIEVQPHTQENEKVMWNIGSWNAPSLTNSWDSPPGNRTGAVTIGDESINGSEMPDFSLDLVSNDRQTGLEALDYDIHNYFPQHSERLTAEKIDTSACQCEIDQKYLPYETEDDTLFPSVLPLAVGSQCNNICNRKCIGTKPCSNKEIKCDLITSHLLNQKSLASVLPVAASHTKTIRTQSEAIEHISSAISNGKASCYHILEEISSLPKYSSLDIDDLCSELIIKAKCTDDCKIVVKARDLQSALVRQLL

[7] = target: T7, Pdr3 (Saccharomyces cerevisiae) (UniProt P33200); conditions: 200 nM
T7 sequence: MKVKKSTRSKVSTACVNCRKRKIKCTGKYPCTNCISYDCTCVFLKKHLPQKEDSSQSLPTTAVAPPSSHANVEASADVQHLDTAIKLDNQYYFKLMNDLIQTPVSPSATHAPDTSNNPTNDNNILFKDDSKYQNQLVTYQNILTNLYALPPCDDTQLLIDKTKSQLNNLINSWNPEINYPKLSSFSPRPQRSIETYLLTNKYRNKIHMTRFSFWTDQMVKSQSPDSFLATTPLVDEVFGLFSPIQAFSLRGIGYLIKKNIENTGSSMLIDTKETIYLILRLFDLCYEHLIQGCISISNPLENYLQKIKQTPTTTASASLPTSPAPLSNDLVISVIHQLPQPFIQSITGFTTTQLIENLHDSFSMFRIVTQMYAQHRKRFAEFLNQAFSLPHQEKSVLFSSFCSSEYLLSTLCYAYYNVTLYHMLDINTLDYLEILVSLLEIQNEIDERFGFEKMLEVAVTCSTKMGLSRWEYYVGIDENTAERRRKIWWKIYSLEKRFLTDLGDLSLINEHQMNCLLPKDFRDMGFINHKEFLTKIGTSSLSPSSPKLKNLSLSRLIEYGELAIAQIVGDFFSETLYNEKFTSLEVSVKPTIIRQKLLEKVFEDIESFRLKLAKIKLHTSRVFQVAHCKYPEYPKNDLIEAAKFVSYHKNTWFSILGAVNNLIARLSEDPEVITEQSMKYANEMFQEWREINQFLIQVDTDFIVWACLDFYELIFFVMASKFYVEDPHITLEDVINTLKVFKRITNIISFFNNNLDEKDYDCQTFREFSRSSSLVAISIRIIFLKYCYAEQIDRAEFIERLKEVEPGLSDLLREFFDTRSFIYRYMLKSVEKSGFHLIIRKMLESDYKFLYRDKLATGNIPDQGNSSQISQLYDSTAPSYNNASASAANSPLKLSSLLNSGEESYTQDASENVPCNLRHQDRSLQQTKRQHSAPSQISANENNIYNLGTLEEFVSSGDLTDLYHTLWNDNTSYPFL

Sequence | binding signal (PBM E-score (-0.5 to 0.5)) [1] | binding signal (PBM E-score (-0.5 to 0.5)) [5] | also measured
ACGTAAGC (double strand) [8-mer ACGTAAGC] | 0.483 |  | 
ACGTAATA (double strand) [8-mer ACGTAATA] | 0.455 |  | binding signal (PBM E-score (-0.5 to 0.5)) [2]: 0.493
ACGTAATC (double strand) [8-mer ACGTAATC] | 0.496 |  | binding signal (PBM E-score (-0.5 to 0.5)) [3]: 0.462
ACTCCGGA (double strand) [8-mer ACTCCGGA] |  | 0.459 | binding signal (PBM E-score (-0.5 to 0.5)) [4]: 0.495
ATTAATAA (double strand) [8-mer ATTAATAA] |  |  | binding signal (PBM E-score (-0.5 to 0.5)) [6]: 0.46
ATTACGTA (double strand) [8-mer ATTACGTA] | 0.49 |  | binding signal (PBM E-score (-0.5 to 0.5)) [3]: 0.478; binding signal (PBM E-score (-0.5 to 0.5)) [2]: 0.497
ATTACTAA (double strand) [8-mer ATTACTAA] |  |  | binding signal (PBM E-score (-0.5 to 0.5)) [6]: 0.492; binding signal (PBM E-score (-0.5 to 0.5)) [3]: 0.479
ATTAGTAA (double strand) [8-mer ATTAGTAA] |  |  | binding signal (PBM E-score (-0.5 to 0.5)) [6]: 0.49; binding signal (PBM E-score (-0.5 to 0.5)) [3]: 0.487
ATTAGTCA (double strand) [8-mer ATTAGTCA] |  |  | binding signal (PBM E-score (-0.5 to 0.5)) [6]: 0.491
ATTTGTCA (double strand) [8-mer ATTTGTCA] |  |  | binding signal (PBM E-score (-0.5 to 0.5)) [6]: 0.465
CCGGAAAA (double strand) [8-mer CCGGAAAA] |  | 0.46 | 
CCGGCCGG (double strand) [8-mer CCGGCCGG] |  | 0.486 | 
CGCCGGCG (double strand) [8-mer CGCCGGCG] |  | 0.485 | 
CGTAAGCA (double strand) [8-mer CGTAAGCA] | 0.463 |  | 
CGTAATCA (double strand) [8-mer CGTAATCA] | 0.458 |  | 
CTGACTAA (double strand) [8-mer CTGACTAA] |  |  | binding signal (PBM E-score (-0.5 to 0.5)) [6]: 0.488

Sequence | binding signal (PBM E-score (-0.5 to 0.5)) [1] | binding signal (PBM E-score (-0.5 to 0.5)) [5] | also measured
CTTACGTA (double strand) [8-mer CTTACGTA] | 0.472 |  | 
CTTACTAA (double strand) [8-mer CTTACTAA] |  |  | binding signal (PBM E-score (-0.5 to 0.5)) [6]: 0.484
CTTAGTAA (double strand) [8-mer CTTAGTAA] |  |  | binding signal (PBM E-score (-0.5 to 0.5)) [6]: 0.471
GCCGCGGC (double strand) [8-mer GCCGCGGC] |  | 0.475 | 
GTCCGGAC (double strand) [8-mer GTCCGGAC] |  | 0.464 | 
TATCCGGA (double strand) [8-mer TATCCGGA] |  | 0.454 | 
TCCGCGGA (double strand) [8-mer TCCGCGGA] |  | 0.481 | binding signal (PBM E-score (-0.5 to 0.5)) [7]: 0.5
TCGGCCGA (double strand) [8-mer TCGGCCGA] |  | 0.473 | 
TGACATAA (double strand) [8-mer TGACATAA] | 0.462 |  | 
TGACGTAA (double strand) [8-mer TGACGTAA] | 0.453 |  | binding signal (PBM E-score (-0.5 to 0.5)) [2]: 0.498
TTACATAA (double strand) [8-mer TTACATAA] | 0.488 |  | 
TTACCTAA (double strand) [8-mer TTACCTAA] | 0.451 |  | 
TTACGTAA (double strand) [8-mer TTACGTAA] | 0.497 |  | binding signal (PBM E-score (-0.5 to 0.5)) [6]: 0.48; binding signal (PBM E-score (-0.5 to 0.5)) [3]: 0.496; binding signal (PBM E-score (-0.5 to 0.5)) [2]: 0.496
TTATATAA (double strand) [8-mer TTATATAA] | 0.456 |  | 
TTCCGGAA (double strand) [8-mer TTCCGGAA] |  | 0.467 | binding signal (PBM E-score (-0.5 to 0.5)) [7]: 0.492

Source: PMC3334620
